The results in this text go back to PMC1874592.

By Km is commonly meant the substrate concentration at which the rate is half of its maximum. A word on the kcat: it is the maximal rate divided by the concentration of active sites.

Substrate in this data set: Nc1ncnc2c1ncn2[C@@H]1O[C@H](COP(=O)(O)OP(=O)(O)OP(=O)(O)O)[C@@H](O)[C@H]1O
Briefly: purified protein. Conditions: labelled compound, ΦX174 ssDNA, Mg2+, 65°C.

B1: SsoRadA (Sulfolobus solfataricus RadA) (Saccharolobus solfataricus P2) (protein)
chain: MSNEVEQKKNIKTINDLPGISQTVINKLIEAGYSSLETLAVASPQDLSVAAGIPLSTAQKIIKEARDALDIRFKTALEVKKERMNVKKISTGSQALDGLLAGGIETRTMTEFFGEFGSGKTQLCHQLSVNVQLPPEKGGLSGKAVYIDTEGTFRWERIENMAKALGLDIDNVMNNIYYIRAINTDHQIAIVDDLQELVSKDPSIKLIVVDSVTSHFRAEYPGRENLAVRQQKLNKHLHQLTRLAEVYDIAVIITNQVMARPDMFYGDPTVAVGGHTLYHVPGIRIQLKKSRGNRRIARVVDAPHLPEGEVVFALTEEGIRDAEE
B1: where the note is “3.0 μM protein”, the Km is 300 ± 10 µM and the kcat was 0.00085 ± 1.7e-05 s⁻¹.

B2: SsoRadA (Sulfolobus solfataricus RadA) (Saccharolobus solfataricus P2; R83E) (protein)
chain: MSNEVEQKKNIKTINDLPGISQTVINKLIEAGYSSLETLAVASPQDLSVAAGIPLSTAQKIIKEARDALDIRFKTALEVKKEEMNVKKISTGSQALDGLLAGGIETRTMTEFFGEFGSGKTQLCHQLSVNVQLPPEKGGLSGKAVYIDTEGTFRWERIENMAKALGLDIDNVMNNIYYIRAINTDHQIAIVDDLQELVSKDPSIKLIVVDSVTSHFRAEYPGRENLAVRQQKLNKHLHQLTRLAEVYDIAVIITNQVMARPDMFYGDPTVAVGGHTLYHVPGIRIQLKKSRGNRRIARVVDAPHLPEGEVVFALTEEGIRDAEE
For B2, under “5.0 μM protein”, the Km stood at 460 ± 60 µM and the kcat came out at 0.000867 ± 6.7e-05 s⁻¹.

B3: SsoRadA (Sulfolobus solfataricus RadA) (Saccharolobus solfataricus P2; F73D) (protein)
chain: MSNEVEQKKNIKTINDLPGISQTVINKLIEAGYSSLETLAVASPQDLSVAAGIPLSTAQKIIKEARDALDIRDKTALEVKKERMNVKKISTGSQALDGLLAGGIETRTMTEFFGEFGSGKTQLCHQLSVNVQLPPEKGGLSGKAVYIDTEGTFRWERIENMAKALGLDIDNVMNNIYYIRAINTDHQIAIVDDLQELVSKDPSIKLIVVDSVTSHFRAEYPGRENLAVRQQKLNKHLHQLTRLAEVYDIAVIITNQVMARPDMFYGDPTVAVGGHTLYHVPGIRIQLKKSRGNRRIARVVDAPHLPEGEVVFALTEEGIRDAEE
Regarding B3, under “5.0 μM protein”, the Km was found to be 490 ± 30 µM and the kcat amounted to 0.00085 ± 1.7e-05 s⁻¹.

B4: SsoRadA (Sulfolobus solfataricus RadA) (Saccharolobus solfataricus P2; R83A) (protein)
chain: MSNEVEQKKNIKTINDLPGISQTVINKLIEAGYSSLETLAVASPQDLSVAAGIPLSTAQKIIKEARDALDIRFKTALEVKKEAMNVKKISTGSQALDGLLAGGIETRTMTEFFGEFGSGKTQLCHQLSVNVQLPPEKGGLSGKAVYIDTEGTFRWERIENMAKALGLDIDNVMNNIYYIRAINTDHQIAIVDDLQELVSKDPSIKLIVVDSVTSHFRAEYPGRENLAVRQQKLNKHLHQLTRLAEVYDIAVIITNQVMARPDMFYGDPTVAVGGHTLYHVPGIRIQLKKSRGNRRIARVVDAPHLPEGEVVFALTEEGIRDAEE
As for B4, where the note is “2.5 μM protein”, the Km is 210 ± 10 µM and the turnover number (kcat) was determined as 0.00152 ± 1.7e-05 s⁻¹.
